The values below come from patent US20210033609A1 (EUROIMMUN MEDIZINISCHE LABORDIAGNOSTIKA, published 2021).

Data set [1] has as its target T1, bovine Apolipoprotein A-I (Bos taurus, UniProt P15497 25-265).
T1 construct: also called bovine apolipoprotein A1; Apo AI[Bos taurus]
T1 sequence: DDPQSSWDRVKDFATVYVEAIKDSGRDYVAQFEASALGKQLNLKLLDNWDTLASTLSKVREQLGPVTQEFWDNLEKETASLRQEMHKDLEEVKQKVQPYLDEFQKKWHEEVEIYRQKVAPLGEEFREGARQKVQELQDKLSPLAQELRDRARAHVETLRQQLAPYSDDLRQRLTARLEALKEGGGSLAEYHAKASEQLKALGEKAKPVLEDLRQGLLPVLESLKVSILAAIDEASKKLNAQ
The experiment in a line: co-purification from cell culture supernatant on nickel affinity resin via the His tag of NS1.

Data set [2] concerns the molecule itself. The experiment in a line: self-association; analytical gel filtration (Superdex 200).

B1: sNS1 (recombinant Zika virus NS1 purified from HEK293T culture supernatant) (other)
chain: GPMDVGCSVDFSKKETRCGTGVFVYNDVEAWRDRYKYHPDSPRRLAAAVKQAWEEGICGISSVSRMENIMWKSVEGELNAILEENGVQLTVVVGSVKNPMWRGPQRLPVPVNELPHGWKAWGKSYFVRAAKTNNSFVVDGDTLKECPLKHRAWNSFLVEDHGFGVFHTSVWLKVREDYSLECDPAVIGTAVKGKEAAHSDLGYWIESEKNDTWRLKRAHLIEMKTCEWPKSHTLWTDGVEESDLIIPKSLAGPLSHHNTREGYRTQVKGPWHSEELEIRFEECPGTKVHVEETCGTRGPSLRSTTASGRVIEEWCCRECTMPPLSFRAKDGCWYGMEIRPRKEPESNLVRSMVTALEHHHHHHHH
notes: Secreted form purified in the presence of 0.1% Triton X-100; Gel filtration: mainly hexamer (227 kDa); also called NS1[ZIKV]; soluble NS1 purified from cell culture supernatant
In the case of B1, the binding result in data set [1] and in data set [2] was “binds” each time.

B2: mNS1 (recombinant Zika virus NS1 purified from HEK293T cell lysate) (other)
chain: B1 chain
notes: Expressed in HEK293T from pTriEx-1; Gel filtration: mainly hexamer (212 kDa) with an extra monomer peak (44 kDa); SDS gives a dimer, heat gives a monomer; also called NS1[ZIKV]; membranous NS1 purified from cells
As to B2, the binding result in data set [2] was “binds”.
